Test results reported in patent US7910550B2, “Human kunitz-type inhibitor with enhanced antifibrinolytic activity” (STC.UNM, priority 2004, dated 2011).

System: HT-1080 cells
Test: Gene expression by Oligo GEARRAY Human Apoptosis Microarray
Format: cell-based
Description: To study the gene expression profiles of proteins involved in apoptosis, approximately 2×10^7 cells were grown to confluence and treated with either recombinant R24K KD1 or vehicle for 24 hours and 48 hours. After the treatment, the cells were harvested and total RNA was purified using the RNEASY RNA extraction kit according to the manufacturer's instruction. The purified RNA samples were further digested using an on-column DNase digestion with RNase-free DNase-I to ensure complete removal of any contaminating genomic or mitochondrial DNA. The pathway-specific microarray was carried out using 3 μg of total RNA to generate biotin-labeled cRNA using TRUELABELING-AMP from SABiosciences Corp. (Frederick, Md.). TRUELABELING-AMP 2.0 from (SABiosciences Corp., Frederick, Md.) was used to rapidly amplify and label antisense RNA for hybridization. Three micrograms of labeled cRNA was used for hybridization with an Oligo GEARRAY Human Apoptosis Microarray consisting of 112 genes. Following incubation with CDP-STAR, the chemiluminescent array image was captured by a cooled CCD camera (Alpha Innotech Corp., San Leandro, Calif.). All images were saved as electronic files in a grayscale, 8 or 16 bit TIFF file format and analyzed using a GEARRAY Expression Analysis Suite. Data were normalized using minimum value background subtraction and interquartile normalization. Minimum value is the lowest density spot on the array and the average across the spot was used as the background correction value and is subtracted from the intensity value for each spot on the array. Interquartile uses only genes between the 25% and 75% quartile and the average intensity value of these spots is used for normalization of all the genes (intensity value of each gene is divided by this mean intensity value). The pUC19 plasmid was used as the negative control in the array.

B1: R24K KD1: KD1 with lysine in place of arginine at position 24 (SEQ ID NO:3) (protein)
chain: DAAQEPTGNNAEICLLPLDYGPCKALLLRYYYDRYTQSCRQFLYGGCEGNANNFYTWEACDDACWRIEKVPKV
modifications: mutated active domain
Fold change BAG3, Group 2 vs. Group 1 (Group 2 vs. Group 1): 0.60 fold | Fold change BAK1, Group 2 vs. Group 1 (Group 2 vs. Group 1): 1.78 fold | Fold change BAX, Group 2 vs. Group 1 (Group 2 vs. Group 1): 3.09 fold | Fold change BCL2, Group 2 vs. Group 1 (Group 2 vs. Group 1): 0.65 fold | Fold change BCL2A1, Group 2 vs. Group 1 (Group 2 vs. Group 1): 2.02 fold | Fold change BCLAF1, Group 2 vs. Group 1 (Group 2 vs. Group 1): 0.74 fold | Fold change BFAR, Group 2 vs. Group 1 (Group 2 vs. Group 1): 0.34 fold | Fold change BNIP3, Group 2 vs. Group 1 (Group 2 vs. Group 1): 1.71 fold | Fold change CARD6, Group 2 vs. Group 1 (Group 2 vs. Group 1): 2.31 fold | Fold change CARD11, Group 2 vs. Group 1 (Group 2 vs. Group 1): 1.54 fold | Fold change CASP4, Group 2 vs. Group 1 (Group 2 vs. Group 1): 1.18 fold | Fold change CASP9, Group 2 vs. Group 1 (Group 2 vs. Group 1): 1.50 fold | Fold change CD40, Group 2 vs. Group 1 (Group 2 vs. Group 1): 4.74 fold | Fold change CIDEB, Group 2 vs. Group 1 (Group 2 vs. Group 1): 2.25 fold | Fold change GADD45A, Group 2 vs. Group 1 (Group 2 vs. Group 1): 1.88 fold | Fold change LTA, Group 2 vs. Group 1 (Group 2 vs. Group 1): 75.31 fold | Fold change LTBR, Group 2 vs. Group 1 (Group 2 vs. Group 1): 1.38 fold | Fold change MCL1, Group 2 vs. Group 1 (Group 2 vs. Group 1): 1.46 fold | Fold change TNFRSF1B, Group 2 vs. Group 1 (Group 2 vs. Group 1): 1.59 fold | Fold change TNFRSF10B, Group 2 vs. Group 1 (Group 2 vs. Group 1): 1.68 fold | Fold change TNFRSF25, Group 2 vs. Group 1 (Group 2 vs. Group 1): 1.27 fold | Fold change TRADD, Group 2 vs. Group 1 (Group 2 vs. Group 1): 1.92 fold | Fold change TRAF4, Group 2 vs. Group 1 (Group 2 vs. Group 1): 3.79 fold | Fold change BAG3, Group 3 vs. Group 1 (Group 3 vs. Group 1): 0.44 fold | Fold change BAK1, Group 3 vs. Group 1 (Group 3 vs. Group 1): 1.74 fold | Fold change BAX, Group 3 vs. Group 1 (Group 3 vs. Group 1): 3.97 fold | Fold change BCL2, Group 3 vs. Group 1 (Group 3 vs. Group 1): 0.12 fold | Fold change BCL2A1, Group 3 vs. Group 1 (Group 3 vs. Group 1): 2.09 fold | Fold change BCL2L13, Group 3 vs. Group 1 (Group 3 vs. Group 1): 1.61 fold | Fold change BCLAF1, Group 3 vs. Group 1 (Group 3 vs. Group 1): 0.41 fold | Fold change BFAR, Group 3 vs. Group 1 (Group 3 vs. Group 1): 0.25 fold | Fold change BNIP3, Group 3 vs. Group 1 (Group 3 vs. Group 1): 1.69 fold | Fold change CARD6, Group 3 vs. Group 1 (Group 3 vs. Group 1): 3.62 fold | Fold change CARD11, Group 3 vs. Group 1 (Group 3 vs. Group 1): 4.36 fold | Fold change CASP4, Group 3 vs. Group 1 (Group 3 vs. Group 1): 2.28 fold | Fold change CASP9, Group 3 vs. Group 1 (Group 3 vs. Group 1): 3.22 fold | Fold change CD40, Group 3 vs. Group 1 (Group 3 vs. Group 1): 63.39 fold | Fold change CIDEB, Group 3 vs. Group 1 (Group 3 vs. Group 1): 1.77 fold | Fold change GADD45A, Group 3 vs. Group 1 (Group 3 vs. Group 1): 5.56 fold | Fold change LTA, Group 3 vs. Group 1 (Group 3 vs. Group 1): 15.94 fold | Fold change LTBR, Group 3 vs. Group 1 (Group 3 vs. Group 1): 1.88 fold | Fold change MCL1, Group 3 vs. Group 1 (Group 3 vs. Group 1): 2.20 fold | Fold change TNFRSF1B, Group 3 vs. Group 1 (Group 3 vs. Group 1): 2.10 fold | Fold change TNFRSF10B, Group 3 vs. Group 1 (Group 3 vs. Group 1): 1.71 fold | Fold change TNFRSF25, Group 3 vs. Group 1 (Group 3 vs. Group 1): 2.08 fold | Fold change TRADD, Group 3 vs. Group 1 (Group 3 vs. Group 1): 2.07 fold | Fold change TRAF4, Group 3 vs. Group 1 (Group 3 vs. Group 1): 4.05 fold
